In a protein production outcome set (Wang et al. 2014):

Test: label from the status in PepcDB records

Question: With “MDKTIYEQMLLKNYKGAEGAEEAWDARANHFYKSQQRGRSELVEKVTAILQERGLLAGADLLDIGGGSGRYAVPFAAHAEHVTITDISANMLELARRNAQEAGVTNLTYAKLEWTGADLAAWQWRKRFDLVFASMCPAIRSPEGLYKMLEAAKGFCLINQYIEATDSLSAYLTQVLDPPRSYEPYNDRDMVQAVFNLLWLEGYEPEICYLRQREVTSFTVEGAVEQYGGRYHQAAQLKRMDLAELISRHAGQVTFSVDSKATLAMILWKV” as the sequence, how does the protein production read?
Answer: failed

Question: Which protein production does the source give for “MDKVFGRTQGLKKSELKRISNLYRRRLPKDRVLTPELAHTLAALSAEVGRPLSLVLDREGRVVRVAVGDAKDVPFPEEGWSERRLSGYRLLHTHLGPGGLSRPDLSVLFLRRLDNLAALEVEADGRPGLLHLAFLSPPRALEEDWRVLPPKPFHQYLDLDLWGEVMALEEELSRQARVLEVRDGSGERALLVGVDTGEGPEAEAVLRELAELTRTAGGVPVKQILVFRKSLDPRYLVGLGKLEELKSLAYHENASTLIFGVDLTPAQAREIERVTGLKVLDRTQLILDIFALHAKTPEAQAQVELAQLRYLLPRLVGKGKEMSRLGGGIGTRGPGETKLEVDRRRLQDRIAHLSRKLQDYALRRQEARQKRKRRGVPLVAVVGYTNAGKTTLLRALTRAGEEGEDKLFATLRPLTRRGFLPGVGEVLFTDTVGFIRHMPEELLTAFRATLEEVREADVLVHVLDASEEGALERHRVVRDLLLDLGVEAPVVLALNKADRAAPYDLYFLGERLGGVPVSALKGTGLKELKEALARALLDLGVRPQAWAQYT” here?
Answer: failed

Question: For “MDKYLSANSLEGVIDNEFSMPAPRWLNTYPAGPYRFINREFFIIAYETDPDLLQAILPPDMELLEPVVKFEFIRMPDSTGFGDYTESGQVVPVRYKGEEGGFTISMFLDCHAPIAGGREIWGFPKKLAKPKLFVEEDTLIGILKYGSIDIAIATMGYKHRPLDAEKVLESVKKPVFLLKNIPNVDGTPLVNQLTKTYLTDITVKGAWTGPGSLELHPHALAPISNLYIKKIVSVSHFITDLTLPYGKVVADYLA”, which protein production is on record?
Answer: not failed

Question: For “MDLDNLFKTTSSSKDKKNNTIDLVVSDDMAFLQAIDELYAIEGFASPLKVDDIDDESWHKTSAEIKHVVLDLRDCGELVSEVAEISSRLDVSISLIVLSNTDSILMRDKVLSLGANYILWDPELDGLLGALKESGKDTFSPTVKKKSRIAKRVLMLGSKGGVGVSTISAFLSHSLSQQASLKTLLVEHDTLALNSDIFLGLKGLKAQQNSIDLNQSELDAAIAGSYVHPIKDKLDFLALEKNIACISDHADSLFRISNELVDQYNFIIDSLPLNAINELTSEDINERYNRIFVVCEPSVASLRAYHSIKKKLGKAEHRIIFSMTRSQKDYMMPLQGAKEKIKAKDTIDFVYEANLEKLIIQQGIHNTAKIKFTPAIANMVNSLTGKKVKVQKKFAWFKK”, which protein production is on record?
Answer: failed

Question: Which protein production does the source give for “MDLFLAMRVYVKVVETGSLTAAAQACSISTTMVGNHLRALEQRLGVSLLQRTTRRQRLTEFGTAYYQRCLEVLGLVAQSEQLAEQAQGEPTGTLRITAPLTFGSELLAPALVGFSQRFPDVKLDLVLTNQRLDMIDNGFDVAIRLGNLAQSSPLIARPLQDYTLTICAAPDYLARHSAPTRPEDLRAHNCLAFAYPAGDEWRTAGTQWRMTGPEGEVLVDVDGSMVANTSAGLYQAARAGMGVVMLPDALVQRDLQEGRLVALLPDYHLPRRPMNLLYVQDRYRLPKLRSFVEFATALWGR” here?
Answer: failed

Question: For “MDLFNAPIAPLQVLHDQQGGVRYWPHLLPPALAQEAFDALRDDADWRSQRREMYDRVVDVPRLLASYRLDDALPAGLPLQRLLDAVQAVLPAPYNAVGLNLYRDGRDSVAMHHDALHTLVAPHPIALLSLGTPRRMQLRAKDGSTRAVALELAPGSLLAMSHASQHTHVHGIAKSTRAVGERISVVFRVRPAQRMAAGQHGPHWEPVQS”, which protein production is on record?
Answer: failed

Question: For “MDLGYLKSKESGFIAGMILCTAFMGSSFPSGKYLISEEAMPAFYAGGWRFLLAGGLILAFCAAKDGLGAILPASGGSVIKGALFVLVVGCLQTAGTMGFLNLALTTLSASMASLLLFTNPLWVAILAHFALGETLSWHKVVALVCGILGVSLCLGGGADHGLGGIVIALAGSLCWALCTLISKKHKFDKSVFVFTGWQLTLGALVMLAISKLSGEAYDIDRITGWGIACFIWLVGPASIGSFGLWFTALSRRGATVTSSYLFLVPLFSAVFSMMVLGEAVSPHSLIGGAIIIVALWLINLPQTVSAVWRERLGL”, which protein production is on record?
Answer: failed

Question: Which protein production does the source give for “MDLIGLRIRNIRKIKQLTLKEAAKGIISVPYLANIENGVKVASFETLMHIAKRLEIPEEALLIGNEDLNKELLQELKQIFDLLVFSNTKEAGDRLDQIAANVDLLCESPVIELSFYWLQAGFYYKTWEFSKAREIERKYLNSNEKRVVESFPPDLLSYYYYGQAVKHSHATCDYQLAVEYWEKSIDLTDKAAFQVVFQVGLCINYICLNNYEPALKHIECAWNLIKRFPSKDQERITAILYLYGYINFQIGFMTEAKRKFEEVLVFFNMYPEAKTMYSFLVRFKLAEIERVEGNHELFDEKIVCLYEELMAHEASEIGFNNNDYLVITELMVIFAEQGSVLEASNLLAIINKVTEQVMEINFFVTYTETLLLYHQNKQSSYEKKMLDLLKKIDESNDPALIERVKKHASKHFADSTKYKMAYNILA” here?
Answer: failed

Question: With “MDLPVDEWKSYLLQKWASLPTSVQVTISTAETLRDIFLHSSSLLQPEDELFLKRLSKGYLVGKDSDAPLFYREEGNKKFQEKDYTGAAVLYSKGVSHSRPNTEDMSLCHANRSAALFHLGQYETCLKDINIAQTHGYPERLQPKIMLRKAECLVALGRLQEASQTISDLERNFTATPALADVLPQTLQRNLHRLKMKMQEKDSLTESFPAALAKTLEDAALREENEQLSNASSSIGLCVDPLKGRCLVATKDILPGELLVQEDAFVSVLNPGELPPPHHGLDSKWDTRVTNGDLYCHRCLKHTLATVPCDGCSYAKYCSQECLQQAWELYHRTECPLGGLLLTLGVFCHIALRLTLLVGFEDVRKIITKLCDKISNKDICLPESNNQVKTLNYGLGESEKNGNIVETPIPGCDINGKYENNYNAVFNLLPHTENHSPEHKFLCALCVSALCRQLEAASLQAIPTERIVNSSQLKAAVTPELCPDVTIWGVAMLRHMLQLQCNAQAMTTIQHTGPKGSIVTDSRQVRLATGIFPVISLLNHSCSPNTSVSFISTVATIRASQRIRKGQEILHCYGPHKSRMGVAERQQKLRSQYFFDCACPACQTEAHRMAAGPRWEAFCCNSCGAPMQGDDVLRCGSRSCAESAVSRDHLVSRLQDLQQQVRVAQKLLRDGELERAVQRLSGCQRDAESFLWAEHAVVGEIADGLARACAALGDWQKSATHLQRSLCVVEVRHGPSSVEMGHELFKLAQIFFNGFAVPEALSTIQKAEEVLSLHCGPWDDEIQELQKMKSCLLDLPPTPVGPAL” as the sequence, how does the protein production read?
Answer: failed

Question: With “MDLRRRQWFLSAILLSAALLIDPQFSTAATASENLVFEVRSKFAGKRVKDLGALRAHDVHRHSRLLSAIDIPLGGDSQPESIGLYFAKIGLGTPSRDFHVQVDTGSDILWVNCAGCIRCPRKSDLVELTPYDVDASSTAKSVSCSDNFCSYVNQRSECHSGSTCQYVIMYGDGSSTNGYLVKDVVHLDLVTGNRQTGSTNGTIIFGCGSKQSGQLGESQAAVDGIMGFGQSNSSFISQLASQGKVKRSFAHCLDNNNGGGIFAIGEVVSPKVKTTPMLSKSAHYSVNLNAIEVGNSVLELSSNAFDSGDDKGVIIDSGTTLVYLPDAVYNPLLNEILASHPELTLHTVQESFTCFHYTDKLDRFPTVTFQFDKSVSLAVYPREYLFQVREDTWCFGWQNGGLQTKGGASLTILGDMALSNKLVVYDIENQVIGWTNHNCSGGIQVKDEESGAIYTVGAHNLSWSSSLAITKLLTLVSLLIPFFCNVAL” as the sequence, how does the protein production read?
Answer: not failed

Question: Which protein production does the source give for “MDLSGVKKKSLLGVKENNKKSSTRAPSPTKRKDRSDEKSKDRSKDKGATKESSEKDRGRDKTRKRRSASSGSSSTRSRSSSTSSSGSSTSTGSSSGSSSSSASSRSGSSSTSRSSSSSSSSGSPSPSRRRHDNRRRSRSKSKPPKRDEKERKRRTLSPKPTKVHIGRLTRNVTKDHIMEIFSTYGKIKMIDMPVERMHPHLSKGYAYVEFENPDEAEXALKHMDGGQLMARDHCYCCVGTLASATTSRFSPPRRMLPPPPCGVGHPHG” here?
Answer: not failed

Question: For “MDLSSPSSFTATIDAPLRAAVFDSAVEAVLLVDPTLDQIVDANNAASALLGHDRDTLLQTRFSALHGAQLPALVVFTQAVFAKGTYWTHALTPLHADGTQLRLEYAGKLLPYRGRSLLLLTMSDLEQ”, which protein production is on record?
Answer: failed

Question: With “MDNDKYLKGTTTVGVVCTDGIVLASEQRATMGHFIASKTAKKVYQIDDLVGMTTAGSVGDAQQLVRLVSVESQLYKMRRNESMTIKGIATLMSNFLNANRYYPMMVQLLIGGVDKNGPAIYSLDPMGGSIEETRISATGSGSPMAYGVLEDQYREDIAVKEGLDLAIRAIHNATKRDSASGENIDVVVITKEAFKRLDPEEVKSRRALLN” as the sequence, how does the protein production read?
Answer: failed

Question: Which protein production does the source give for “MDNEMNYGSDYKFIPATSIESGHGIEVLRDLFCYTIQIVNICFVGNPETNDFVLVDAGMPKCANEIISIAKDRFGTNSRPKAIILTHGHFDHVGGIIELIKHWDVHVYAHQMEIPFLTGQQSYPEPDPTVEGGMVAKMSPLFPNEPIDLGNNVKALPTDGTVPHMPEFRWIHTPGHTPGHISLFREKDRTLIAGDAFVTVKQEYLYKVITQEQEISGPPRYLTTDWKAAKESVLKLEKLKPLTAVTGHGIPMSGELLSTSLKTLVQEFDKIAVPDYGKYIDKKMHLEHHHHHH” here?
Answer: not failed

Question: With “MDNKKLFVFIKYFTLVFMIVGIIFGGKEFNAQNITLMLILIINHQLRTFSLNKYIHKIISFILEIVLVVICNFWISGYLFTYLILLAIDANVMFKKFLASTFNVVIILIGVYFSFNYSLNYKIMNLGVSIIIIAVFYFNKYENEKKIEAQDLYDRLRISEEKLKKANRDLEMYASSVEELTLLRERNRISREIHDSVGHSLSTMVIQLGAIEKIIRKAPEKAELLTKNLRKFTQKSLDEVRAAVRAIKPKEFEEYEGILSIEELISNFKKMANIDVRLAFTKEKWSLNSDQSFVLYRIVQEFLSNSARHGRASRVDVIMAFSEKNLLVTLKDNGQGCQSIIEGVGMKSMRERVKELGGYFEYKTAPYEGFTVKIELAKREKLKVYSGGENNG” as the sequence, how does the protein production read?
Answer: failed

Question: For “MDNKVILVGGFHEIIELCEDNDIEIAGIIDNYLTNDTYWGYPIIGTDDKAKVLFETYKNVPVLITPDVPHVRYKLYHYYKSIGFQVASLISRDASISRSAIIGEGTIIQRGANLSSNIKIGQMVKVNTNANIMHDCLIGNYVTVAPNAVLLGKVEIDDKAYIGANATLLPSVKIGENVTVGAGSVVTKSVRPNTVVKGSPAK”, which protein production is on record?
Answer: failed

Question: Which protein production does the source give for “MDNLETDRLILINYTLEMIQATINGTEALEKTSGYHVSPDWPGIDFFFYLPYVLENVKKDDKMIKWTRLVVLKTENKIIGEIGGQGNPDETGEIEIGYSIVPDYQNKGYMSEALISMIDWLEHQPVINRIFARCYEQNEASIQVLKHNHFVH” here?
Answer: failed

Question: Which protein production does the source give for “MDNPCPTCGQELEWTGQYHCSACTVDYCKVGFCPECGSELEKLQACGAANYFCNQCNELKSKSKIRFVFQPLNGNSQLEHHHHHH” here?
Answer: not failed

Question: Which protein production does the source give for “MDNRNIDPYFNPEQFLETQKYKGTVTALIFLLLFFIFLMVAFKKAFFAQANMPNLVMSKQDTAARGTIYSQDNYSLATSQTLFKLGFDTRFLNPDKEDFFIDFLSIYSNIPKKSLKDAINTKGYIILAYDLTPNMAANIRDLNKKFLAFGVFQNFKDAHDKVWQKQGLNIEVSGVSRHYPYQNSLEPIIGYVQKQEEDKLTLTTGKKGVEKSQDHLLKAQQNGIRTGKRDVSFNFIQNHSYTEVERLDGYEVYLSVPLKLQREIETLLDKTKDKLKAKEILVGIINPKSGEILSLASSKRFNPNAIKTSDYESLNLSVAEKVFEPGSTIKPIVYSLLLDKNLINPKERIDLNHGYYQLGKYTIKDDFIPSKKAVVEDILIQSSNVGMIKISKNLNPKDFYNGLLGYGFSQKTGIDLSLEATGKIPPLSAFKREVLKGSVSYGYGLNATFLQLLRAYAVFSNEGKLTTPYLVQRETAPNGDIYIPSPKPTFQVISPKSARKMKETLIKVVRYGTGKNAQFEGLYIGGKTGTARVAKNGSYSAQSYNSSFFGFAEDERQVFTIGVVILGSHGKEEYYASKIAAPIFKEITEILVRYNYLSPSIAIQNALEKNRFKIK” here?
Answer: failed
